Assay results: patent US9610371B2, “Anticancer therapy” (STC.UNM, priority 2005, dated 2017)
Where two headings read alike, the source gives them in different places.

Experiments:
[1] = 25 day toxicology in tumor bearing male Lewis rats; assay type: in vivo, Lewis rat; conditions: rat, in vivo
Experimental: Toxicology was assessed at 25 days in 4 groups of tumor bearing male Lewis rats (average volume […]). Rats in the first group, Cohort 1, were injected on day 1 only. Rats in second cohort were injected on days 1 and 2, while rats in the third cohort were injected on days 1, 2, and 3. Rats were injected with 2.56 μg, 0.5 μg, 0.5 μg DOTATOC, on day 1, day 2 and day 3, respectively, with a nominal activity of 3.7 MBq. Each dose was divided into 2 injections at 1 hour intervals. The rats received the following cumulative average activities per group: Cohort 1 (N=3) received 4.3±0.7 MBq, Cohort 2 (N=3) received 9.0±0.4 MBq, and Cohort 3 (N=4) received 12.6±0.3 MBq of ^213Bi-DOTATOC. Cohort 4 (N=4) was added as control group and injected twice daily with unlabelled DOTATOC on three consecutive days.
After 24 days, the animals were put into a metabolic cage to collect urine samples for creatinine clearance analysis. Creatine clearance was determined as previously described (20). After 24 hour urine collection, the animals were euthanized with halothane. For blood collection, a cardiac puncture was performed. Blood analysis consisted of hemoglobin (Hgb), hematocrit (Hct), red blood cells (RBC's), and white blood cells (WBC's) with differential, and platelets (Pt's). Additionally T4 and FSH values were assessed using the serum.
Additional groups were then designed to study the effects of the treatment on a somatostatin receptor positive tumor. The first group was designed to study the effects of treatment on large volume tumors (average volume 1720±608 mm^3). This group, Cohort 5 (N=5), received three fractionated doses of ^213Bi-DOTATOC (specific activity 7.4 MBq ^213Bi/1 μG DOTATOC) with a total average cumulative dose of 13.0±0.5 MBq of ^213Bi-DOTATOC. The last cohort, the sixth cohort (N=4), was injected with two fractionated doses, ^213Bi-DOTATOC (specific activity 7.4 MBq ^213Bi/1 μG DOTATOC) with a total average cumulative dose of 22.2±0.7 MBq of ^213Bi-DOTATOC. As described earlier, each dose was divided into 2 injections separated by a 1 hour interval. Tumor response to the treatment was assessed in all cohorts by daily tumor measurements.
(§1) Organs were harvested and immediately placed in 10% formalin for a minimum of 48 hours. Following fixation in formalin, bone samples were placed in decalcifying solution for 36 hours. Trimmed organs were sent to the TriCore Laboratories (Albuquerque, N. Mex.) where they were embedded in paraffin, sectioned, and stained with Hematoxylin and Eosin (H and E). Histopathologic evaluation was performed by a board certified veterinary pathologist (DFK) who examined the following organs of each animal: heart, lung, kidneys, testicles, spleen, pancreas, pituitary bone marrow, urinary bladder, adrenals, and two different sections of the liver.
(§2) Sections of both the right and left kidneys were examined to determine nephrotoxicity in all cohorts. Bone marrow was examined to evaluate hypoplasia and other lesions in Cohorts 3 and 4. Interstitial nephritis and bone marrow were scored as follows: 0 no lesions, 1 minimal lesions, 2 mild lesions, 3 moderate lesions, and 4 severe lesions.
(§3) For the pathology scoring, to evaluate nephrotoxicity on the 6 treatment groups, a frequency analysis was performed in StatXact-5 using the Jonckheere-Terpstra Test. For all other data, graphs and calculations were performed in SigmaStat®-3 and SigmaPlot®-9 as well as Graph Pad Prism®-4 using the t-test. For all statistical tests results were considered significant when p<0.05. Animal biodistribution and tumor volume data are expressed as the average, plus or minus the SEM.

[2] = rat, in vivo
Experimental: A 26 week toxicology study was performed in 3 groups of rats. The first group, Cohort 7 (N=3), received three fractionated doses ^213Bi-DOTATOC (specific activity 7.4 MBq ^213Bi/1 μG DOTATOC with a total average cumulative dose of 12.75±1.1 MBq. The second group, Cohort 8 (N=3), received D-lysine (concentration 400 mg/mL) immediately before receiving three fractionated doses ^213Bi-DOTATOC with a specific activity 7.4 MBq ^213Bi/1 μG DOTATOC with a total average cumulative dose of 11.39±0.14 MBq. The third group, cohort 9 (N=3) received 3 fractionated doses of DOTATOC. Rats were injected with 2.56 μg, 0.5 μg, 0.5 μg DOTATOC, on day 1, day 2 and day 3, respectively. As described earlier, each dose was divided into 2 injections separated by a 1 hour interval.
as §1, §2

[3] = Biodistribution in tumor bearing and non-tumor bearing rats; conditions: rat, in vivo, total radioactivity
[4] = as above; conditions: rat, in vivo
Experimental: FIG. 13: A, B Graphical comparisons of Tumor and Non-Tumor Bearing Rats at 1 hour post injection of ^213Bi-DOTATOC. Columns, means, Bars, SEM, white columns represent non-tumor bearing rats and black columns represent tumor bearing rats. Significance of p<0.05 is represented by a (*).
as §3

For `C[C@@H](O)[C@@H]1NC(=O)[C@H](CCCCN)NC(=O)[C@@H](Cc2c[nH]c3ccccc23)NC(=O)[C@H](Cc2ccc(O)cc2)NC(=O)[C@@H](NC(=O)[C@@H](Cc2ccccc2)NC(=O)CN2CCN(CC(=O)O)CCN(CC(=O)O)CCN(CC(=O)O)CC2)CSSC[C@@H](C(=O)N[C@H](CO)[C@@H](C)O)NC1=O` [^213Bi-DOTATOC, metal not drawn], the “FSH values vs control animals” value [1] was “No significant changes”, the “average histopathologic score for nephrititis” value [1] was 1 and the “hematology results vs control group” value [1] was “did not show any significant differences”. For the same compound, the “histopathological examination of heart, lungs, liver, spleen, urinary bladder” value [1] was “no evidence of treatment induced toxicity”, the “histopathology of testes, adrenals, pancreas” value [1] was “No histopathologic abnormalities” and the “likelihood of interstitial nephrititis with dose” value [1] was “increased with increasing dose”. For the same compound, the nephrotoxicity with low-dose [1] was “minimal nephrotoxicity”, the “toxicity in the high-dose treatment cohort (kidney)” value [1] was “Minimal toxicity” and the “FSH or T4 serum values vs control animals” value [2] was “No significant changes”. For the same compound, the adrenal histopathology [2] was “minimal nodular cortical hyperplasia in both adrenals”, the “creatinine clearance vs control group (DOTATOC only)” value [2] was “No difference” and the “hematology results vs control group” value [2] was “did not show any significant differences”. The liver histopathology [2] was “mild or moderate cholangiohepatitis and perivasculitits”, the lung histopathology [2] was “minimal to mild interstitial pneumonia” and the “microcystic degeneration in the pituitary” value [2] was “mild to moderate”. The microcystic pancreatic degeneration [2] was “mild to moderate”, the “rats with one adrenal each with nodular cortical hyperplasia” value [2] was 2 rats and the tissue uptake at 3 h ([3]; accumulation of radioactivity in the blood) was 0.02 %ID/g. It also gave a tissue uptake at 3 h ([3]; accumulation of radioactivity in the bone marrow) of 0.06 ± 0.02 %ID/g, a tissue uptake at 3 h ([3]; accumulation of radioactivity in the kidneys) of 11.2 ± 0.46 %ID/g and a tissue uptake at 3 h ([3]; accumulation of radioactivity in the liver) of 0.14 ± 0.02 %ID/g. The tissue uptake at 3 h ([3]; accumulation of radioactivity in the spleen) was 0.08 ± 0.01 %ID/g, the tissue uptake at 3 h ([3]; accumulation of radioactivity in the stomach) was 0.08 ± 0.01 %ID/g and the tissue uptake at 3 h ([3]; accumulation of radioactivity in the testis) was 0.02 %ID/g. For the same compound, the “localization in stomach and muscle, tumor vs non-tumor bearing rats” value [4] was “significantly higher”.
